From patent US5773647A, “Compounds and compositions for delivering active agents” (Emisphere Technologies, Inc., priority 1997, dated 1998)
Where two headings read alike, the source gives them in different places.

Legend:
[1] = rat, in vivo, 50 mg/kg
Description: (§1) An intracolonic dosing composition containing 50 mg/kg of carrier 9 and 250 μg/kg of interferon in 50% propylene glycol was prepared. Rats were administered the dosing composition by intracolonic instillation.
(§2) Rats were administered, orally and by intracolonic instillation, dosing solutions of 1 mg/kg of interferon and no carrier.

[2] = In vivo interferon delivery (ELISA for human interferon); conditions: 1 mg/kg interferon, no carrier
Description: as §1, §2

Row | Mean peak serum interferon concentration [1] | Molecule | Mean peak serum interferon concentration ([2]; intracolonic (IC)) | Mean peak serum interferon concentration ([2]; oral (PO))
1 | 2611±695 | O=C(O)CCCc1ccc(NC(=O)COc2ccccc2)cc1 [Compound 9] | – | –
2 | – | interferon | 79±100 | 1951±1857
